Experimental data taken from publication doi:10.1101/2024.06.06.597810 (bioRxiv, 2024).

Target: T1, SARS-CoV-2 spike stem helix peptide (residues 1146-1159), displayed on yeast (SARS-CoV-2)
T1 chain: DSFKEELDKYFKNH
Test: flow cytometry on cells
Settings: partners not purified

B1: S2P6 VH E1Q/VL E105D in scFv format (scFv, V domains shown)
VH: QVQLVQSGAEVKKPGASVKVSCKASGYTFTSQYMHWVRQAPGQGLEWIGIINPSGVHTSYAQKFQGRVTLTRDTSTSTLYMELSSLRSEDTAVYYCARGSPKGAFDYWGQGTLVTVSS
VL: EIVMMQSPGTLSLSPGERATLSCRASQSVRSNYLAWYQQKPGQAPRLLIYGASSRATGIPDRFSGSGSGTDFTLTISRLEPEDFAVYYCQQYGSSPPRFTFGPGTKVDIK
notes: not shown: HA, C-terminal, kept
**Q.** Does B1 bind?
**A.** binds
